Patent US20240336686A1
Numbering of substitutions follows the chain as printed. Like-named read-outs stand apart in the source and are kept apart here.

B1: Anti-SIRPα antibody C25 (antibody, V domains shown)
VH: EVQLQQSGAELVKPGASVKLSCTASGFNIKDYYMHWVKQRTEQGLEWIGRIDPEDGETKYAPKFQGKATITADTSSNTAYLQLSSLTSEDTAVYYCDRGLAYWGQGTLVTVSA
VL: QIVLTQSPAIMSASPGEKVTLTCSASSSVSSSYLYWYQQKPGSSPKLWIYSTSNLASGVPARFSGSGSGTSYSLTISSMEAEDAASYFCHQWSSYPYTFGGGTKLEIK
B2: Humanized anti-SIRPα antibody hu025.021 (antibody, V domains shown)
VH: EVQLVQSGAEVKKPGATVKISCKVSGFNIKDYYMHWVQQAPGKGLEWIGRIDPEDAETKYAPKFQGRVTITADTSTNTAYMELSSLRSEDTAVYYCDRGLAYWGQGTLVTVSS
VL: EIVLTQSPATLSLSPGERATLSCSASSSVSSSYLYWYQQKPGQAPKLWIYSTSNLASGIPARFSGSGSGTDYTLTISSLEPEDFAVYYCHQWSSYPYTFGQGTKLEIK
B3: Humanized anti-SIRPα antibody hu025.023 (antibody, V domains shown)
VH: B2 VH
VL: B2 VL with Y72F
B4: Humanized anti-SIRPα antibody hu025.059 (antibody, V domains shown)
VH: B2 VH with V24A
VL: B2 VL
B5: Humanized anti-SIRPα antibody hu025.060 (antibody, V domains shown)
VH: B2 VH with V24A
VL: B2 VL with Y72F
B6: Anti-Claudin18.2/SIRPα bispecific antibody ES028-001 (bispecific antibody, not shown: a dimerising Fc or GST)
light (part 1 of 2): DIVMTQSPDSLAVSLGERATINCKSSQSLLNAGNQKNYLTWYQQKPGQPPKLLIYWSSTRESGVPDRFSGSGSGTDFTLTISSLQAEDVAVYHCQNNYYYPLTFGGGTKLEIK
light (part 2 of 2): GGGGSGGGGSGGGGSQIVLTQSPAIMSASPGEKVTLTCSASSSVSSSYLYWYQQKPGSSPKLWIYSTSNLASGVPARFSGSGSGTSYSLTISSMEAEDAASYFCHQWSSYPYTFGGGTKLEIKGGGGSGGGGSGGGGSGGGGSEVQLQQSGAELVKPGASVKLSCTASGFNIKDYYMHWVKQRTEQGLEWIGRIDPEDGETKYAPKFQGKATITADTSSNTAYLQLSSLTSEDTAVYYCDRGLAYWGQGTLVTVSA
heavy: QVQLVQSGAEVKKPGASVKVSCKASGYTFTNWVHWVRQAPGQGLEWMGEINPTNARSNYNEKFKKRVTMTRDTSTSTVYMELSSLRSEDTAVYYCARIYYGNSFAHWGQGTLVTVSS
B7: Anti-Claudin18.2/SIRPα bispecific antibody ES028-005 (bispecific antibody, not shown: a dimerising Fc or GST)
light: B6 light (part 1 of 2)
heavy (part 1 of 2): B6 heavy
heavy (part 2 of 2): B6 light (part 2 of 2)
B8: Anti-Claudin18.2/SIRPα bispecific antibody ES028-009 (bispecific antibody, not shown: a dimerising Fc or GST)
light (part 1 of 2): B1 VL
light (part 2 of 2): GGGGSGGGGSGGGGSDIVMTQSPDSLAVSLGERATINCKSSQSLLNAGNQKNYLTWYQQKPGQPPKLLIYWSSTRESGVPDRFSGSGSGTDFTLTISSLQAEDVAVYHCQNNYYYPLTFGGGTKLEIKGGGGSGGGGSGGGGSGGGGSQVQLVQSGAEVKKPGASVKVSCKASGYTFTNWVHWVRQAPGQGLEWMGEINPTNARSNYNEKFKKRVTMTRDTSTSTVYMELSSLRSEDTAVYYCARIYYGNSFAHWGQGTLVTVSS
heavy: B1 VH
B9: Anti-Claudin18.2/SIRPα bispecific antibody ES028-013 (bispecific antibody, not shown: a dimerising Fc or GST)
light: B1 VL
heavy (part 1 of 2): B1 VH
heavy (part 2 of 2): B8 light (part 2 of 2)
B10: Anti-Claudin18.2 antibody hu28.H1L2 (antibody, V domains shown)
VH: B6 heavy
VL: B6 light (part 1 of 2)
B11: Anti-PDL1/SIRPα bispecific antibody ES019-024 (bispecific antibody, not shown: a dimerising Fc or GST)
light: B1 VL
heavy (part 1 of 2): B1 VH
heavy (part 2 of 2): EVQVVESGGGLVQSGGSLKLSCAGSGFTESAGFMVWHRQVPGKERELVALIATPSGSTNYADSVKGRFTISRDNGKNTVYLQMNSLKPEDTAVYYCNIRGYWGQGTLVTVSS
B12: Anti-PDL1/SIRPα bispecific antibody ES019-026 (bispecific antibody, not shown: small tags and cut ends; a dimerising Fc or GST)
light (part 1 of 2): B11 heavy (part 2 of 2)
light (part 2 of 2): B1 VL
heavy: B1 VH

Tests used:
[1] = molecular target: human SIRPα on CHO-K1 cells (human) (UniProt P78324); assay: FACS, CHO-K1 cells overexpressing human SIRPα, anti-human Fc-PE, MFI
Human SIRPα v1 (human) = Human SIRPα v1 (human) (UniProt P78324); assay: SPR (Biacore), 1:1 binding model
[2] = molecular target: human SIRPα on CHO-K1 cells (human) (UniProt P78324); assay: FACS, CHO-K1 cells overexpressing human SIRPα, anti-human Fc-PE, MFI; remark: listed apart in the source
[3] = molecular target: human SIRPα protein (Octet assay) (human) (UniProt P78324); assay: Octet; antibody on sensor, SIRPα protein in solution
[4] = molecular target: human Claudin18.2 on Raji cells (human) (UniProt P56856); assay: FACS, Raji cells overexpressing human Claudin18.2, anti-human Fc-PE, MFI

Sequence of Human SIRPα v1 (human) (P78324 31-370): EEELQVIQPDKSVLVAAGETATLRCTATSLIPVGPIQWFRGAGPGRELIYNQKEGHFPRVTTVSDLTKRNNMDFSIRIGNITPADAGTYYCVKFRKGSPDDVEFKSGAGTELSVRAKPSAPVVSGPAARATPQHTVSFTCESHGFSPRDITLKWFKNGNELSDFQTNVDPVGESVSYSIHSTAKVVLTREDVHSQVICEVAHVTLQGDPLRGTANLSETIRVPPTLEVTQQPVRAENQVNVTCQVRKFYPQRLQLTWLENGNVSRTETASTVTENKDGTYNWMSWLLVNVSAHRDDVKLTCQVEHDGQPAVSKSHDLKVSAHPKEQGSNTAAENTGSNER

Binder	EC50 (read off the curve) [1] [nM]	Kd (Human SIRPα v1 (human)) [nM]	koff (Human SIRPα v1 (human)) [s⁻¹]	kon (Human SIRPα v1 (human)) [M⁻¹ s⁻¹]	EC50 (read off the curve) [2] [nM]	Kd [3] [nM]	koff [3] [s⁻¹]	kon [3] [M⁻¹ s⁻¹]	EC50 (read off the curve) [4] [nM]
B1	0.3	1.53	0.000924	602000	0.5	2.12	0.00109	512000	–
B2	–	3.05	0.00183	599000	–	–	–	–	–
B3	–	2.67	0.00172	643000	–	–	–	–	–
B4	–	2.29	0.00123	536000	–	–	–	–	–
B5	–	1.99	0.00111	560000	–	–	–	–	–
B6	–	–	–	–	0.8	1.51	0.000271	179000	2
B7	–	–	–	–	0.9	1.41	0.00047	334000	1
B8	–	–	–	–	0.5	2.44	0.00133	544000	–
B9	–	–	–	–	0.5	–	–	–	–
B10	–	–	–	–	–	–	–	–	1
B11	0.3	–	–	–	–	–	–	–	–
B12	0.4	–	–	–	–	–	–	–	–
